In patent US20250171562A1:

B1: NIgG4F4A1(G4S)2 (Fc fusion)
chain 1: DVQLQESGGGLVQAGGSLRLSCAVSGLSFSSMGWFRQPPGKEREFVAAISLYSGSTYYADSVKGRFTISSDNAKSTVYLQMNSLKPEDAAVYFCAADRQRTWSTFYASRQATYNYWGQGTQVTVTSGGGGSGGGGSGPPCPPCPAPEFLGGPSVFLFPPKPKDTLMISRTPEVTCVVVDVSQEDPEVQFNWYVDGVEVHNAKTKPREEQFNSTYRVVSVLTVLHQDWLNGKEYKCKVSNKGLPSSIEKTISKAKGQPREPQVYTLPPCQEEMTKNQVSLWCLVKGFYPSDIAVEWESNGQPENNYKTTPPVLDSDGSFFLYSRLTVDKSRWQEGNVFSCSVMHEALHNHYTQKSLSLSLGK
chain 2: EVQLLESGGGLVQPGGSLRLSCAASGFTFGNYDMAWVRQAPGKRPEWVSSIDTGGDITHYADSVKGRFTISRDNAKNTLYLQMNSLRPEDTAVYWCATDEEYALGPNEFDYYGQGTLVTVSSGGGGSGGGGSGPPCPPCPAPEFLGGPSVFLFPPKPKDTLMISRTPEVTCVVVDVSQEDPEVQFNWYVDGVEVHNAKTKPREEQFNSTYRVVSVLTVLHQDWLNGKEYKCKVSNKGLPSSIEKTISKAKGQPREPQVCTLPPSQEEMTKNQVSLSCAVKGFYPSDIAVEWESNGQPENNYKTTPPVLDSDGSFFLVSRLTVDKSRWQEGNVFSCSVMHEALHNHYTQKSLSLSLGK
B2: NIgG4F4A1(G4S)3 (Fc fusion)
chain 1: DVQLQESGGGLVQAGGSLRLSCAVSGLSFSSMGWFRQPPGKEREFVAAISLYSGSTYYADSVKGRFTISSDNAKSTVYLQMNSLKPEDAAVYFCAADRQRTWSTFYASRQATYNYWGQGTQVTVTSGGGGSGGGGSGGGGSGPPCPPCPAPEFLGGPSVFLFPPKPKDTLMISRTPEVTCVVVDVSQEDPEVQFNWYVDGVEVHNAKTKPREEQFNSTYRVVSVLTVLHQDWLNGKEYKCKVSNKGLPSSIEKTISKAKGQPREPQVYTLPPCQEEMTKNQVSLWCLVKGFYPSDIAVEWESNGQPENNYKTTPPVLDSDGSFFLYSRLTVDKSRWQEGNVFSCSVMHEALHNHYTQKSLSLSLGK
chain 2: EVQLLESGGGLVQPGGSLRLSCAASGFTFGNYDMAWVRQAPGKRPEWVSSIDTGGDITHYADSVKGRFTISRDNAKNTLYLQMNSLRPEDTAVYWCATDEEYALGPNEFDYYGQGTLVTVSSGGGGSGGGGSGGGGSGPPCPPCPAPEFLGGPSVFLFPPKPKDTLMISRTPEVTCVVVDVSQEDPEVQFNWYVDGVEVHNAKTKPREEQFNSTYRVVSVLTVLHQDWLNGKEYKCKVSNKGLPSSIEKTISKAKGQPREPQVCTLPPSQEEMTKNQVSLSCAVKGFYPSDIAVEWESNGQPENNYKTTPPVLDSDGSFFLVSRLTVDKSRWQEGNVFSCSVMHEALHNHYTQKSLSLSLGK
B3: NIgG4F4A1(G4S)1 (Fc fusion)
chain 1: DVQLQESGGGLVQAGGSLRLSCAVSGLSFSSMGWFRQPPGKEREFVAAISLYSGSTYYADSVKGRFTISSDNAKSTVYLQMNSLKPEDAAVYFCAADRQRTWSTFYASRQATYNYWGQGTQVTVTSGGGGSGPPCPPCPAPEFLGGPSVFLFPPKPKDTLMISRTPEVTCVVVDVSQEDPEVQFNWYVDGVEVHNAKTKPREEQFNSTYRVVSVLTVLHQDWLNGKEYKCKVSNKGLPSSIEKTISKAKGQPREPQVYTLPPCQEEMTKNQVSLWCLVKGFYPSDIAVEWESNGQPENNYKTTPPVLDSDGSFFLYSRLTVDKSRWQEGNVFSCSVMHEALHNHYTQKSLSLSLGK
chain 2: EVQLLESGGGLVQPGGSLRLSCAASGFTFGNYDMAWVRQAPGKRPEWVSSIDTGGDITHYADSVKGRFTISRDNAKNTLYLQMNSLRPEDTAVYWCATDEEYALGPNEFDYYGQGTLVTVSSGGGGSGPPCPPCPAPEFLGGPSVFLFPPKPKDTLMISRTPEVTCVVVDVSQEDPEVQFNWYVDGVEVHNAKTKPREEQFNSTYRVVSVLTVLHQDWLNGKEYKCKVSNKGLPSSIEKTISKAKGQPREPQVCTLPPSQEEMTKNQVSLSCAVKGFYPSDIAVEWESNGQPENNYKTTPPVLDSDGSFFLVSRLTVDKSRWQEGNVFSCSVMHEALHNHYTQKSLSLSLGK

The binders below were run against mixture of three Der p 2 specific recombinant human IgE clones H10, H12, P4E (human) (UniProt P01854) (assay: RBL-SX38 IgE displacement, FACS).
Sequence of mixture of three Der p 2 specific recombinant human IgE clones H10, H12, P4E (human) (P01854 other isoform, or with tags, fused parts or gaps): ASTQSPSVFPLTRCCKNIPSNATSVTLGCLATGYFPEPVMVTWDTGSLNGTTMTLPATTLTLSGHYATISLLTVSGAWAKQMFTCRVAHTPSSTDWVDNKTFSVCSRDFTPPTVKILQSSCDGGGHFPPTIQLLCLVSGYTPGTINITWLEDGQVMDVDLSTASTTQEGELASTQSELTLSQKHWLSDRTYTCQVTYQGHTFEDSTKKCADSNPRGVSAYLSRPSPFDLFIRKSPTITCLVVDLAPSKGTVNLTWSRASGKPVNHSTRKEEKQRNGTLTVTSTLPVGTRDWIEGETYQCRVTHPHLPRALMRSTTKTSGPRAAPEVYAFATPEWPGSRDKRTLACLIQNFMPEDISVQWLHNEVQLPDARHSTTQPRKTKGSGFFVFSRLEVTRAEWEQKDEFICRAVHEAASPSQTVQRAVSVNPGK
With B1 the EC50 was 21.1 nM and the Max effect/effect 1 µM was 97%.
Binder B2 has an EC50 of 44.5 nM and a Max effect/effect 1 µM of 85%.
Work on B3 yielded an EC50 of 21.6 nM and a Max effect/effect 1 µM of 100%.
